Results on six molecules are retold here after US20220064322A1 (JACOBIO PHARMACEUTICALS, published 2022).

The target in assay [1] is T1, human CD73 ecto-domain recombinant protein (huCD73) (human, UniProt P21589 27-547).
T1 construct: also called soluble huCD73; soluble recombinant CD73
T1 sequence: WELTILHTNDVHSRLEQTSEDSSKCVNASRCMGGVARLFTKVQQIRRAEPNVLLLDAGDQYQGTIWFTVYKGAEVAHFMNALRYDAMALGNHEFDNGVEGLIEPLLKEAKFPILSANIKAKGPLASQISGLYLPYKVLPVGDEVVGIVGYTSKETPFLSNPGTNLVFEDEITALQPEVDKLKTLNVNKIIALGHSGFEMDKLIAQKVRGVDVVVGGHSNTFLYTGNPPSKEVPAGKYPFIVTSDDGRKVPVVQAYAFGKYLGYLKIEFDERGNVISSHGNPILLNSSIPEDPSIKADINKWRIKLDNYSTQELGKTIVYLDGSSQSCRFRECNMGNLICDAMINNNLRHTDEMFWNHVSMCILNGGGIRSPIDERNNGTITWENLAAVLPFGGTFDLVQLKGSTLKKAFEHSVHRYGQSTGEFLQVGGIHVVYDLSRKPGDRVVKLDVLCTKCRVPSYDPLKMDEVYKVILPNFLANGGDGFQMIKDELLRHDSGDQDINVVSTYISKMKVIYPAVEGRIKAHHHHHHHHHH
Put plainly: indirect ELISA, coated huCD73 recombinant protein, curve fit. The method, then:
(§1) Incubated with gradient diluted 100 μL/well of antibodies for 1 h at room temperature. After the plates were washed 3 times with 200 ul/well of PBST, 100 ul of diluted HRP-labeled secondary antibody at a ratio of 1:5000 was added to each well, and the plates were incubated for 1 hour at room temperature. The plates were washed 3 times with 200 ul/well of PBST, 100 ul of TMB was added to each well and reacted for 5 minutes at room temperature in the dark. […] read the OD value. The affinity of humanized antibodies and parent antibodies were similar to the antigen (table 9).
(An ELISA detects its analyte on a solid surface through an enzyme-linked reagent.)

Assay [2] concerns the target T1, human CD73 ecto-domain recombinant …. Kind of assay: indirect ELISA, coated huCD73 recombinant protein. The method, then: as §1
Assay [3] has as its target T2, cynomolgus CD73 on the cell surface (293T/17-cynoCD73 cells) (cynomolgus (Macaca fascicularis), UniProt P21589 27-547 (human entry)).
T2 construct: it is an ecto-domain with a His tag
T2 chain: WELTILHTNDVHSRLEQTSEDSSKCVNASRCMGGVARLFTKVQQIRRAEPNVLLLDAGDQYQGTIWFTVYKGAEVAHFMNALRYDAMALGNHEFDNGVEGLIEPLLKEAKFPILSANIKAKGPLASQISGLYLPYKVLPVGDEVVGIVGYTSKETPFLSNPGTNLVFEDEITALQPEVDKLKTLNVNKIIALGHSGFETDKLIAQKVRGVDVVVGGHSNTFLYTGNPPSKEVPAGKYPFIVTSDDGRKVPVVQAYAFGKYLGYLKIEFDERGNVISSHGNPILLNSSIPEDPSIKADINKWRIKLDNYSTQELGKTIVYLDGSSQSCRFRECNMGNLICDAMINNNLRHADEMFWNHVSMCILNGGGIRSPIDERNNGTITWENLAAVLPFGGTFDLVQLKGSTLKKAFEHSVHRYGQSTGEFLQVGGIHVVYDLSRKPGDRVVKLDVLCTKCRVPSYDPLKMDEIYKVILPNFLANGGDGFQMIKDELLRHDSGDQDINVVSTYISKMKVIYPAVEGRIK
Put plainly: flow cytometry on 293T/17-Cyno CD73 cells. The method, then: (§2) 2×10⁶ cells resuspended in PBS buffer were distributed into 96-well plates and incubated with gradient diluted humanized antibodies for 1 h at refrigerator 4° C. or on ice, then the cells was centrifuged for 3 min 1500 rpm at 4° C. and washed three times by PBS, and diluted APC-labeled goat anti-human polyclonal antibody (Biolegend) were incubated for 30 min at refrigerator 4° C. Finally, the cells were washed three times with PBS as described above and analyzed on MACSQuant flow cytometer. GraphPad Prism software was used to generate data graphs and statistical affinity data.
(§3) The samples to be tested were incubated for 1 h at 4° C. after gradient dilution. After washing, 100 μL of APC-labeled secondary antibody was added to each well and incubated for 30 min. After washing, detecting on machine and the fluorescence value was read. GraphPad Prism software was used to generate data graphs and statistical affinity data.
A general note: A flow cytometer gives signals particle by particle.

Assay [4] concerns the target T2, cynomolgus CD73 on the cell surface …. Kind of assay: flow cytometry on 293T/17-Cyno CD73 cells, curve fit. The method, then: as §2, §3
Assay [5] shares this target. Kind of assay: cell-based or functional assay.
In assay [6] the target is T1, human CD73 ecto-domain recombinant …. Kind of assay: indirect ELISA, plate coated with 1 ug/ml huCD73 recombinant protein, HRP-labelled secondary antibody, RFU. The method, then: as §1

What is called EC50 is the midpoint of the concentration-response curve. For orientation: EC50 (read off the curve) means the concentration needed to bring the measured effect to its halfway point.

Where a chain is given by its changes, count along the chain named.

B1: JB24H3L2 (antibody, human IgG1, kappa, V domains shown)
VH: QVQLVQSGAEVKKPGASVKMSCKASGYTFTDYNMHWVKQSHGKSLEWIGYIKPHNAGTTYNPKFEGRATLTVDTSASTAYMELRSLRSEDTAVYYCVRSDFLYWYFDVWGQGTTVTVSS
VL: DIQMTQSPSSLSASVGDRVTITCTASSSVSSSYLHWYQQKPGSAPKLWIYSTSNLASGVPSRFSGSGSGTDYTLTISSLQPEDFATYYCHQYHRSPLTFGAGTKLEIKR
notes: Humanized antibody of JB24Chi, human IgG1 / kappa
B1: the Bottom turned out to be 89.1 OD value in assay [1] and 0.509 fluorescence in assay [4]. The Top in assay [1] was found to be 7140 OD value; in assay [4], 48.7 fluorescence. For the same molecule, the EC50 in assay [2] was found to be 20.8 pM; in assay [3] it was 3590 pM. Also, in assay [5], the “IC50, blockade of 5'exonuclease activity on 293T/17-Cyno CD73 cells” value (from here on “IC50, blockade of 5'exonuclease activity”) was 4 pM. In assay [6], the “EC50 (read off the curve)” value was around 0.2 µg/mL.

B2: JB24H3L3 (antibody, human IgG1, kappa, V domains shown)
VH: B1 VH
VL: B1 VL with Q3V, A44S, S61G
notes: as for B1
As for B2, the Bottom in assay [1] amounted to 9.8 OD value; in assay [4], 0.917 fluorescence. Also, the Top was 7310 OD value in assay [1] and 34 fluorescence in assay [4]. The EC50 in assay [2] turned out to be 22.8 pM; in assay [3], 3730 pM. Besides, in assay [5], the “IC50, blockade of 5'exonuclease activity” value is 3 pM. For the same molecule, the “EC50 (read off the curve)” value in assay [6] is around 0.2 µg/mL.

B3: JB94Chi (antibody, human IgG1, kappa)
heavy: not shown
light: DIRMTQSPSSMYASLGERVTITCKASQDINTYLSWFQQKPGKSPKSLIYRSNILVDGVPSRFSGSGSGQDYSLTISSLEYEDMGIYYCLQYDDFPYTFGGGTKLEIKRTVAAPSVFIFPPSDEQLKSGTASVVCLLNNFYPREAKVQWKVDNALQSGNSQESVTEQDSKDSTYSLSSTLTLSKADYEKHKVYACEVTHQGLSSPVTKSFNRGEC
notes: Chimeric antibody: mouse Fv of 94A12G11F with human IgG1 and human kappa constant regions
With B3, the Bottom in assay [1] stood at 152 OD value; in assay [4], 1.45 fluorescence. Moreover, the figures for the Top in assay [1] and in assay [4] were 8470 OD value and 124 fluorescence, respectively. In addition, the EC50 is 35.7 pM in assay [2] and 8590 pM in assay [3]. Besides, the “IC50, blockade of 5'exonuclease activity” value in assay [5] turned out to be 1 pM. Besides, the “EC50 (read off the curve)” value in assay [6] is around 0.03 µg/mL.

B4: JB94H2L1 (antibody, human IgG1, kappa, V domains shown)
VH: QVQLVQSGAEVKKPGASVKVSCKASGYTFTSYWMHWVRQRPGQGLEWMGYINPSSGYTKSNQKFKDRVTLTADTSTSTAYMELSSLRSEDTAVYYCGRWLLSAWFAYWGQGTLVTVSS
VL: DIQMTQSPSSLSASVGDRVTITCKASQDINTYLSWFQQKPGKAPKSLIYRSNILVDGVPSRFSGSGSGQDFTLTISSLQPEDFAIYYCLQYDDFPYTFGQGTKLEIKR
notes: Humanized antibody of the 94 clone, human IgG1 / kappa
Regarding B4, the Bottom is -142 OD value in assay [1] and 0.22 fluorescence in assay [4]. Besides, the Top in assay [1] stood at 7110 OD value; in assay [4], 82 fluorescence. Also, the figures for the EC50 in assay [2] and in assay [3] were 25.2 pM and 7970 pM, respectively. Also, the “IC50, blockade of 5'exonuclease activity” value in assay [5] amounted to 0.1 pM. In assay [6], the “EC50 (read off the curve)” value was around 0.02 µg/mL.

B5: JB94H3L3 (antibody, human IgG1, kappa, V domains shown)
VH: B4 VH with V5Q, V20L, M48I, V68A
VL: B4 VL with A43S, F71Y
notes: as for B4
For B5, the Bottom in assay [1] came out at 320 OD value; in assay [4], 1.4 fluorescence. Moreover, the Top is 8900 OD value in assay [1] and 125 fluorescence in assay [4]. Moreover, the EC50 stood at 29.2 pM in assay [2] and 9820 pM in assay [3]. Moreover, in assay [5], the “IC50, blockade of 5'exonuclease activity” value was determined as 2 pM. The “EC50 (read off the curve)” value in assay [6] is around 0.03 µg/mL.

B6: 94H1L3 hIgG2 (antibody)
heavy: QVQLVQSGAEVKKPGASVKVSCKASGYTFTSYWMHWVRQAPGQGLEWMGYINPSSGYTKSNQKFKDRVTMTADTSTSTAYMELSSLRSEDTAVYYCGRWLLSAWFAYWGQGTLVTVSSASTKGPSVFPLAPCSRSTSESTAALGCLVKDYFPEPVTVSWNSGALTSGVHTFPAVLQSSGLYSLSSVVTVPSSNFGTQTYTCNVDHKPSNTKVDKTVERKCCVECPPCPAPPVAGPSVFLFPPKPKDTLMISRTPEVTCVVVDVSHEDPEVQFNWYVDGVEVHNAKTKPREEQFNSTFRVVSVLTVVHQDWLNGKEYKCKVSNKGLPAPIEKTISKTKGQPREPQVYTLPPSREEMTKNQVSLTCLVKGFYPSDIAVEWESNGQPENNYKTTPPMLDSDGSFFLYSKLTVDKSRWQQGNVFSCSVMHEALHNHYTQKSLSLSPGK
light: DIQMTQSPSSLSASVGDRVTITCKASQDINTYLSWFQQKPGKSPKSLIYRSNILVDGVPSRFSGSGSGQDYTLTISSLQPEDFAIYYCLQYDDFPYTFGQGTKLEIKRTVAAPSVFIFPPSDEQLKSGTASVVCLLNNFYPREAKVQWKVDNALQSGNSQESVTEQDSKDSTYSLSSTLTLSKADYEKHKVYACEVTHQGLSSPVTKSFNRGEC
As to B6, the “IC50, blockade of 5'exonuclease activity” value in assay [5] was determined as 21 pM.
